The test system of this data set is HuB (Hel-N2, ELAV-like), Q12926-2. The following applies: increase in HuB RNP on differentiation.

The source of these data is patent US20030211466.

Like-named read-outs stand apart in the source and are kept apart here.

Chain of HuB (Hel-N2, ELAV-like), Q12926-2 (Q12926 other isoform, or with tags, fused parts or gaps): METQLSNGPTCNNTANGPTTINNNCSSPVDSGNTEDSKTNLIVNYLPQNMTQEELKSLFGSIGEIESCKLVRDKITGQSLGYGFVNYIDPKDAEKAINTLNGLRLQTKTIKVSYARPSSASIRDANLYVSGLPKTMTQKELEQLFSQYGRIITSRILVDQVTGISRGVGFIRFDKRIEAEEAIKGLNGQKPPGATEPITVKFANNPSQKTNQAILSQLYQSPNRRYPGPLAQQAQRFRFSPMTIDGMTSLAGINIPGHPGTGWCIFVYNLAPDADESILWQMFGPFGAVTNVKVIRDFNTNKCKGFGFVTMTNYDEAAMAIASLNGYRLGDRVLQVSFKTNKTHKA

As for MBNL mRNA, the binding signal (total RNA +1.42) worked out at 8.95 fold.

Substance CACN (calcium channel beta 3) mRNA registered a binding signal (total RNA +1.31) of 14.5 fold.

For the substance CELSR mRNA, where the note is “total RNA -1.33”, the binding signal came to 9.41 fold.
